The assay concerns the target T1, HPK1 intact citron homology domain fragment (C428-E821), untagged, Q92918-2.
T1 chain: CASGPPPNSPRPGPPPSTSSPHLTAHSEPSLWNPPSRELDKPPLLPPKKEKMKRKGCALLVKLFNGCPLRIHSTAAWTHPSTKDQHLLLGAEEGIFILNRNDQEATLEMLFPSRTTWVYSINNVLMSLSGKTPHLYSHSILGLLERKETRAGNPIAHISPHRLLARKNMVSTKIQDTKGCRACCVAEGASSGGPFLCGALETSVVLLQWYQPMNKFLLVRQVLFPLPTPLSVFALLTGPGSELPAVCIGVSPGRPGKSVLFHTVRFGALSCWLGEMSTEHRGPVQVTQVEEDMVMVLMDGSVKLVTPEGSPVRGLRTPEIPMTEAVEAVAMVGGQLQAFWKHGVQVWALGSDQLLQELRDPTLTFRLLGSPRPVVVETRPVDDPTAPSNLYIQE
As to the kind of experiment: SPR. The settings on record: chain shown with the change; left plot; plateau of the last (highest) of five successive CHD injections, about 800-900 s; CHD concentrations not given; read off a plot.

For one molecule, response (Response Units) results are on record in publication PMC11066036.

B1: HPK1 kinase domain wild type (D2-N293) S171A (protein)
chain: DVVDPDIFNRDPRDHYDLLQRLGGGTYGEVFKARDKVSGDLVALKMVKMEPDDDVSTLQKEILILKTCRHANIVAYHGSYLWLQKLWICMEFCGAGSLQDIYQVTGSLSELQISYVCREVLQGLAYLHSQKKIHRDIKGANILINDAGEVRLADFGISAQIGATLARRLAFIGTPYWMAPEVAAVALKGGYNELCDIWSLGITAIELAELQPPLFDVHPLRVLFLMTKSGYQPPRLKEKGKWSAAFHNFIKVTLTKSPKKRPSATKMLSHQLVSQPGLNRGLILDLLDKLKN
For the molecule B1, the response (Response Units) worked out at 42.
